# Experimental data from the supplement of paper PMC12855868.
# B1: library; numbered along this chain (parent)
# chain: MAAAGGARLLRAASAVLGGPAGRWLHHAGSRAGSSGLLRNRGPGGSAEASRSLSVSARARSSSEDKITVHFINRDGETLTTKGKVGDSLLDVVVENNLDIDGFGACEGTLACSTCHLIFEDHIYEKLDAITDEENDMLDLAYGLTDRSRLGCQICLTKSMDNMTVRVPETVADARQSIDVGKTS
# Variants of: B1
# Experiment: scaled log2 fold change in cell abundance, elesclomol vs control (0 = silent mean, 1 = nonsense mean) (scaled log2 ratio); higher = higher viability under elesclomol (loss of FDX1 cuproptosis function)
# Settings: with HEK293T FDX1 KO; elesclomol 40 nM; glucose 10 mM; 11 days
# 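Also: variant abundance is its share of total variant reads in each endpoint sample, from next-generation sequencing of the integrated ORF PCR-amplified out of genomic DNA.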
row,Variant,scaled log2 fold change
1,V171G,0.349
2,D173I,0.102
3,P168G,-0.0258
